Paper PMC5618490, “Arabidopsis E3 Ubiquitin Ligases PUB22 and PUB23 Negatively Regulate Drought Tolerance by Targeting ABA Receptor PYL9 for Degradation” (International Journal of Molecular Sciences, 2017)
Each block holds one binder with its values, some of them ahead of it.

Columns and labels:
[1] = molecular target: T1, MBP-PUB23 (Arabidopsis thaliana, UniProt Q84TG3 1-411); experiment: pull-down; MBP-PUBs or MBP on amylose resin incubated with GST-PYLs for 1 h at room temperature in 20 mM Tris-HCl pH 7.2, 10 mM MgCl2, 2 mM DTT; washed five times; blot with anti-GST antibody; conditions: both partners purified
T1 construct: PUB23, plant U-box E3 ubiquitin ligase, Arabidopsis thaliana; Kept on the amylose resin for the pull-down; source: E. coli BL21 (DE3), purified (amylose resin); not shown: MBP, N-terminal, kept
T1 sequence (looked up): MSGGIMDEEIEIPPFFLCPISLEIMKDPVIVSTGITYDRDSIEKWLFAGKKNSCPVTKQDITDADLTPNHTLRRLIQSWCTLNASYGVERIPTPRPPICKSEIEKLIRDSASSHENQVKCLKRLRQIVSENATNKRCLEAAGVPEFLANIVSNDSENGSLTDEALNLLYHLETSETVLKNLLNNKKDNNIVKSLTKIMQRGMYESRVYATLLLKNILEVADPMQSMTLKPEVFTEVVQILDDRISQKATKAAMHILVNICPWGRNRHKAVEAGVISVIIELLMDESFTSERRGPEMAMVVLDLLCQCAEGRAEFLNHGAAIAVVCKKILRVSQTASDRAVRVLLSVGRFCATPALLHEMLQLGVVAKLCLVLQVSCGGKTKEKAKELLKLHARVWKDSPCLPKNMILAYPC

[2] = molecular target: T2, MBP-PUB22 (Arabidopsis thaliana, UniProt Q9SVC6 1-435); experiment: as above; conditions: both partners purified
T2 construct: PUB22, plant U-box E3 ubiquitin ligase, Arabidopsis thaliana; Kept on the amylose resin for the pull-down; source: E. coli BL21 (DE3), purified (amylose resin); not shown: MBP, N-terminal, kept
T2 sequence (looked up): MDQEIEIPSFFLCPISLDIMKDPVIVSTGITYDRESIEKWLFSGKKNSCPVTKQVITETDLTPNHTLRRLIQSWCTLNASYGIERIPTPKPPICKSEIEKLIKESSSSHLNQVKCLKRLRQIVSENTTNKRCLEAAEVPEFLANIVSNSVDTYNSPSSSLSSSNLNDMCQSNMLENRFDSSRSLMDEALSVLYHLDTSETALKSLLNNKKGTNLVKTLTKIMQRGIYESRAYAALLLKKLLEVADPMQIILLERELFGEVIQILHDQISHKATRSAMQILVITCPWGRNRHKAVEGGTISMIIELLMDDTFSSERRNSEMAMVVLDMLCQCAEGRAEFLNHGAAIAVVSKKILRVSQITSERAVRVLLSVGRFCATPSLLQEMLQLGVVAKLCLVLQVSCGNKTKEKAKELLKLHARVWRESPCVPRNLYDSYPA

B1: GST-PYL9 (receptor, Arabidopsis thaliana, UniProt Q84MC7 1-187, looked up)
chain: MMDGVEGGTAMYGGLETVQYVRTHHQHLCRENQCTSALVKHIKAPLHLVWSLVRRFDQPQKYKPFVSRCTVIGDPEIGSLREVNVKSGLPATTSTERLELLDDEEHILGIKIIGGDHRLKNYSSILTVHPEIIEGRAGTMVIESFVVDVPQGNTKDETCYFVEALIRCNLKSLADVSERLASQDITQ
notes: PYL9, PYR/PYL/RCAR family ABA receptor, Arabidopsis thaliana; cDNA fused to the C terminus of the GST tag in pCold-GST between EcoRI and SalI; source: E. coli, purified (Glutathione Sepharose 4B, eluted with reduced glutathione); not shown: GST, N-terminal, kept
binding result [1]: binds

B2: GST-PYL7 (receptor, Arabidopsis thaliana, UniProt Q1ECF1 1-211, looked up)
chain: MEMIGGDDTDTEMYGALVTAQSLRLRHLHHCRENQCTSVLVKYIQAPVHLVWSLVRRFDQPQKYKPFISRCTVNGDPEIGCLREVNVKSGLPATTSTERLEQLDDEEHILGINIIGGDHRLKNYSSILTVHPEMIDGRSGTMVMESFVVDVPQGNTKDDTCYFVESLIKCNLKSLACVSERLAAQDITNSIATFCNASNGYREKNHTETNL
notes: PYL7, PYR/PYL/RCAR family ABA receptor, Arabidopsis thaliana; cDNA fused to the C terminus of the GST tag in pCold-GST; source: E. coli DE3 cells, purified (Glutathione Sepharose 4B); not shown: GST, N-terminal, kept
binding result [2]: binds

The next lines start with the values.

binding result [2]: binds
B3: GST-PYL8 (receptor, Arabidopsis thaliana, UniProt Q9FGM1 1-188, looked up)
chain: MEANGIENLTNPNQEREFIRRHHKHELVDNQCSSTLVKHINAPVHIVWSLVRRFDQPQKYKPFISRCVVKGNMEIGTVREVDVKSGLPATRSTERLELLDDNEHILSIRIVGGDHRLKNYSSIISLHPETIEGRIGTLVIESFVVDVPEGNTKDETCYFVEALIKCNLKSLADISERLAVQDTTESRV
notes: PYL8, PYR/PYL/RCAR family ABA receptor, Arabidopsis thaliana; cDNA fused to the C terminus of the GST tag in pCold-GST; source: E. coli DE3 cells, purified (Glutathione Sepharose 4B); not shown: GST, N-terminal, kept

binding result [2]: binds
B4: GST-PYL5 (receptor, Arabidopsis thaliana, UniProt Q9FLB1 1-203, looked up)
chain: MRSPVQLQHGSDATNGFHTLQPHDQTDGPIKRVCLTRGMHVPEHVAMHHTHDVGPDQCCSSVVQMIHAPPESVWALVRRFDNPKVYKNFIRQCRIVQGDGLHVGDLREVMVVSGLPAVSSTERLEILDEERHVISFSVVGGDHRLKNYRSVTTLHASDDEGTVVVESYIVDVPPGNTEEETLSFVDTIVRCNLQSLARSTNRQ
notes: PYL5, PYR/PYL/RCAR family ABA receptor, Arabidopsis thaliana; cDNA fused to the C terminus of the GST tag in pCold-GST; source: E. coli DE3 cells, purified (Glutathione Sepharose 4B); not shown: GST, N-terminal, kept
